In paper PMC11722443:

Target: Paxillin (PXN) N-domain, residues 1-311 (human) (UniProt P49023)
Test: NMR titration

## Focal adhesion targeting (FAT) domain of focal adhesion kinase (FAK) (domain or fragment)
  effective KD of the LD2 motif: 7 mM
